Patent publication US6891027

Assays:
[1] = biological target: CD21 on mouse B cells (mouse) (UniProt P19070); test: cell-based or functional assay
[2] = biological target: CD21 on Raji B lymphoblastoid cells (human) (UniProt P20023); test: 50% inhibition of specific binding of [125I]HEL-C3d2 to Raji cells expressing CD21; two experiments
[3] = biological target: transgenic membrane IgM and IgD specific for HEL on mouse B cells; test: transgenic B cells incubated with 3 nM protein for 10 min, free sites read by subsequent binding of fluorescein-conjugated HEL
[4] = biological target: transgenic membrane IgM and IgD specific for HEL on mouse B cells; test: cell-based or functional assay

Sequence of CD21 on mouse B cells (mouse) (P19070 12-1025): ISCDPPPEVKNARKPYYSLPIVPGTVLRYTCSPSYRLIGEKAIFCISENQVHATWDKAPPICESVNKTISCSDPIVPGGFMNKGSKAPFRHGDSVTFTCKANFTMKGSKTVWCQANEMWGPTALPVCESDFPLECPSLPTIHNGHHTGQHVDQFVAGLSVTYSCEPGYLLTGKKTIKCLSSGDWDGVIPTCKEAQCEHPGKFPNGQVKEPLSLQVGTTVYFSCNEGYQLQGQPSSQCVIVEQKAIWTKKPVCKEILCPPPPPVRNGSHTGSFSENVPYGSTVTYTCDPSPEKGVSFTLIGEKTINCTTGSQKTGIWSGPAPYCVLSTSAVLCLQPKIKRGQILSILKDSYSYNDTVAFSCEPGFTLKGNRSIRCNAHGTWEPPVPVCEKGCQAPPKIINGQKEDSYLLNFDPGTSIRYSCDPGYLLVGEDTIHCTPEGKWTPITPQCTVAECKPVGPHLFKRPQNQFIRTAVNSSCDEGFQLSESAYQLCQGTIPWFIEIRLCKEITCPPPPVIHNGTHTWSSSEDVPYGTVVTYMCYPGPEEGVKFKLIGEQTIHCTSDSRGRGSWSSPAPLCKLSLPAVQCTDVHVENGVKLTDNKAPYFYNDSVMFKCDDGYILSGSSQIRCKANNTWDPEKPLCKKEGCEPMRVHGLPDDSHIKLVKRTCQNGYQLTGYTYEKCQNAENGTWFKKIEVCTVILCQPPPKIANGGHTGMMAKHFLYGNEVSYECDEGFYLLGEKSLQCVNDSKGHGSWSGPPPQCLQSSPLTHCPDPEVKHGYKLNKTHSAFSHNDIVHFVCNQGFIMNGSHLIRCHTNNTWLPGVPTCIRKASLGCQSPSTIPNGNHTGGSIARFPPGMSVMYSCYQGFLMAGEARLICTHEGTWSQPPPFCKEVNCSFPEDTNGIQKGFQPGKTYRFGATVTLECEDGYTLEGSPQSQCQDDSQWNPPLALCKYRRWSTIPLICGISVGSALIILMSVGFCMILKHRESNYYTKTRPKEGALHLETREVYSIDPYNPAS
Sequence of CD21 on Raji B lymphoblastoid cells (human) (P20023 21-1033): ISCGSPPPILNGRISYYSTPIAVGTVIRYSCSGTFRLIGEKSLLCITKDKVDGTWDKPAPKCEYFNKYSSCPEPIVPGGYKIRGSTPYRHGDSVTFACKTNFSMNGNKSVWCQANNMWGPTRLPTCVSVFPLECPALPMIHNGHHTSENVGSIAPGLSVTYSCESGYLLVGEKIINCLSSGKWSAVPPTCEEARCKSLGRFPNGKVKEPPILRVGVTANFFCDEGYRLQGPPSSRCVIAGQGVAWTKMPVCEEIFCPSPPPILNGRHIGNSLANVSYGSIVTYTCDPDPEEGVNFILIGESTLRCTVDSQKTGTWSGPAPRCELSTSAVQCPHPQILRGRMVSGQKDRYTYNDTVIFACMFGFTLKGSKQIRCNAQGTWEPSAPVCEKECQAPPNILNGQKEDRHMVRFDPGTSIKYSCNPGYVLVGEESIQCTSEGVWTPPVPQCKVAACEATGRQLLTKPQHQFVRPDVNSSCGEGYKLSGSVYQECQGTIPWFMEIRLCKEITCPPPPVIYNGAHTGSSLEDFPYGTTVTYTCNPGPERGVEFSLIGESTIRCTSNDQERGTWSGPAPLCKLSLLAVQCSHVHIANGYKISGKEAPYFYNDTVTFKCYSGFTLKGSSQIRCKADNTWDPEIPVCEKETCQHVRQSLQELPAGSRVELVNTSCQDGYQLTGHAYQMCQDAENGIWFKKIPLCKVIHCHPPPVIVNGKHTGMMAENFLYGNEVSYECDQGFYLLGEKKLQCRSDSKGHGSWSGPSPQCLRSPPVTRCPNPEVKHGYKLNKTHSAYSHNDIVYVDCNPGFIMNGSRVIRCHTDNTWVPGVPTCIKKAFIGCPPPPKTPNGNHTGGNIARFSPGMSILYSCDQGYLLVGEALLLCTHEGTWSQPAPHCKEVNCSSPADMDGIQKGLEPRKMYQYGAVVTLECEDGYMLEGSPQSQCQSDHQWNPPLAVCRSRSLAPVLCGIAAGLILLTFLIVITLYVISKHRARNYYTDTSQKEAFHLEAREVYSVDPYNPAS

threshold for increase in [Ca2+]i in HEL-specific B cells [1] [nM]	IC50 [2] [nM]	% saturation of the anti-HEL sites [3] [%]	threshold for increase in [Ca2+]i in HEL-specific B cells (nM (printed as '7 n')) [4]	Substance
0.07	8 to 20			HEL-C3d2 recombinant fusion protein (hen egg lysozyme fused to two murine C3d) (from UniProt P00698 19-147; P01027 1006-1302; P01027 1006-1302)
0.007		47		HEL-C3d3 recombinant fusion protein (hen egg lysozyme fused to three murine C3d) (from UniProt P00698 19-147; P01027 1006-1302; P01027 1006-1302; P01027 1006-1302)
		51	7	recombinant hen egg lysozyme with YL1/2 epitope tag (HEL.YL) (from UniProt P00698 19-147)
0.7				HEL-C3d recombinant fusion protein (hen egg lysozyme fused to one murine C3d) (from UniProt P00698 19-147; P01027 1006-1302)
